From PMC9140497

Target: α2β1 integrin (human (endogenous in HT1080)) (UniProt P17301)
Chain of UniProt P17301 (P17301 30-1181, chain 1 of 2): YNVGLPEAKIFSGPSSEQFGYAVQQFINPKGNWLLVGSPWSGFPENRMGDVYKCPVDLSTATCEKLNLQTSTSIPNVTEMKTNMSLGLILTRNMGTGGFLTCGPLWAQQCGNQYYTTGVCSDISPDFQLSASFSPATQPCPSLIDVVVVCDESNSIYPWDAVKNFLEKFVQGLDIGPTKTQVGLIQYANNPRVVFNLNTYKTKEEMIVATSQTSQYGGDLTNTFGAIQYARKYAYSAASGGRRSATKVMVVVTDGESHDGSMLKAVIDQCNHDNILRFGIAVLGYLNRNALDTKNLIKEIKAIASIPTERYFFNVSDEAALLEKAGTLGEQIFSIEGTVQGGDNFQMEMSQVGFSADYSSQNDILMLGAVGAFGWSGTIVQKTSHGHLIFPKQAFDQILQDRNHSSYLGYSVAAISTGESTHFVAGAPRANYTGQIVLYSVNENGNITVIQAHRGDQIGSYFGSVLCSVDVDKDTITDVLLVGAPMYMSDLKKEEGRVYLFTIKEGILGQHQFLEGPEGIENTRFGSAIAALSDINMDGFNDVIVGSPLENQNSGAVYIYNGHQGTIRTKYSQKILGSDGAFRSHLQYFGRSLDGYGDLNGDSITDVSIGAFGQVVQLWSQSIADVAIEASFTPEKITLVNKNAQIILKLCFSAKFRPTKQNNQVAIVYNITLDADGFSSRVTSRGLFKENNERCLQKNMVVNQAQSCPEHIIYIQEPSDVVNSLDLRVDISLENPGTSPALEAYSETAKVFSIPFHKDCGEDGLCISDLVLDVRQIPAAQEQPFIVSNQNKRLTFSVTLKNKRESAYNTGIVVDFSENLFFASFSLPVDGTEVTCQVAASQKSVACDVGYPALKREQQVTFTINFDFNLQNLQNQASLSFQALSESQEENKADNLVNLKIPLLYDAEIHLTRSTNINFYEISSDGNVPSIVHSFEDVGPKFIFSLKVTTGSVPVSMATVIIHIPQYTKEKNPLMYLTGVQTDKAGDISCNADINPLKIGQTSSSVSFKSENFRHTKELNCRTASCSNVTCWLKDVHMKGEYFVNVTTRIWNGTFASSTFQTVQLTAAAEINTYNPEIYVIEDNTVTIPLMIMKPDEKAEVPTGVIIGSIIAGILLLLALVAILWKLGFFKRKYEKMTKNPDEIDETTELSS
Chain of UniProt P17301 (P05556 21-798, chain 2 of 2, further chain): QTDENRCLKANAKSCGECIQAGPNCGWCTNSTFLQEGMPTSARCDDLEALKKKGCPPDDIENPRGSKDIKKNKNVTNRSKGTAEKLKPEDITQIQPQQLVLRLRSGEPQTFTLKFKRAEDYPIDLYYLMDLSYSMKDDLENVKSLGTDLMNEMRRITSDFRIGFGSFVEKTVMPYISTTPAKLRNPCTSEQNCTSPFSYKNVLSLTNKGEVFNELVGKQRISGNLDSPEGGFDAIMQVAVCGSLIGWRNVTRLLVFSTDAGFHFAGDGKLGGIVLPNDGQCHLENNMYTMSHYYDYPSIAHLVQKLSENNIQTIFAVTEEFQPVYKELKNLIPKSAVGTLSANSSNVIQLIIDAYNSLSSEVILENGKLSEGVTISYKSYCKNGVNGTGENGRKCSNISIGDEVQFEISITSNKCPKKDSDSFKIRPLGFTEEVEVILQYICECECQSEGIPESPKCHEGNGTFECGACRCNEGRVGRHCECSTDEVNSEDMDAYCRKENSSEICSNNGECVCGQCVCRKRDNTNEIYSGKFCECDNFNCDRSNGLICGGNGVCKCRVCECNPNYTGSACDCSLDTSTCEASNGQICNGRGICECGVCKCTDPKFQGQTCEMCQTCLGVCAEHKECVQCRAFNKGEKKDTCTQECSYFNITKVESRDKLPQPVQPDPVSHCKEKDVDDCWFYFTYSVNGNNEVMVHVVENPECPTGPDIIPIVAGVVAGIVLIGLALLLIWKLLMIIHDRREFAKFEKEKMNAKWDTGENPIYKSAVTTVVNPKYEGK

Row | adhesion of HT1080 cells pre-incubated with 10 μg/mL mAb13 (anti-β1) on Fmoc-FF/S/GFOGER hydrogel [%] | adhesion of HT1080 cells pre-incubated with 10 μg/mL mAb13 (anti-β1) on RTC-modified hydrogel [%] | Substance
1 | 23 | – | GFOGER peptide
2 | – | 15 | Rat Tail Collagen (from UniProt P02454 152-1207; P02466 86-1125) (natural protein)
